# B1: CI-MPR domains 1-5 1-726 (protein)
# chain: MGAAAGRSPHLGPAPARRPQRSLLLLQLLLLVAAPGSTQAQAAPFPELCSYTWEAVDTKNNVLYKINICGSVDIVQCGPSSAVCMHDLKTRTYHSVGDSVLRSATRSLLEFNTTVSCDQQGTNHRVQSSIAFLCGKTLGTPEFVTATECVHYFEWRTTAACKKDIFKANKEVPCYVFDEELRKHDLNPLIKLSGAYLVDDSDPDTSLFINVCRDIDTLRDPGSQLRACPPGTAACLVRGHQAFDVGQPRDGLKLVRKDRLVLSYVREEAGKLDFCDGHSPAVTITFVCPSERREGTIPKLTAKSNCRYEIEWITEYACHRDYLESKTCSLSGEQQDVSIDLTPLAQSGGSSYISDGKEYLFYLNVCGETEIQFCNKKQAAVCQVKKSDTSQVKAAGRYHNQTLRYSDGDLTLIYFGGDECSSGFQRMSVINFECNKTAGNDGKGTPVFTGEVDCTYFFTWDTEYACVKEKEDLLCGATDGKKRYDLSALVRHAEPEQNWEAVDGSQTETEKKHFFINICHRVLQEGKARGCPEDAAVCAVDKNGSKNLGKFISSPMKEKGNIQLSYSDGDDCGHGKKIKTNITLVCKPGDLESAPVLRTSGEGGCFYEFEWHTAAACVLSKTEGENCTVFDSQAGFSFDLSPLTKKNGAYKVETKKYDFYINVCGPVSVSPCQPDSGACQVAKSDEKTWNLGLSNAKLSYYDGMIQLNYRGGTPYNNERHTPRATL
# modifications: GAA N-glycans modified to contain only phosphodiesters
# Target: acid alpha-glucosidase (GAA phosphodiester) (Homo sapiens, UniProt P10253)
# Test: SPR
binder,measurement,value
B1,Kd,~60 nM

# From paper PMC7481795 (2020)
